Laboratory results: patent US20220195043A1 (BEIJING MABWORKS BIOTECH, published 2022)
Positions count from the first letter of the chain named. Read-outs that look alike come from different tables or passages of the source.

B1: mAB2 (anti-CD3 antibody of Macrogenics, positive control) (antibody, V domains shown)
VH: EVQLVESGGGLVQPGGSLKLSCAASGFTFNTYAMNWVRQAPGKGLEWVARIRSKYNNYATYYADSVKDRFTISRDDSKNTAYLQMNSLKTEDTAVYYCVRHGNFGDSYVSWFAYWGQGTLVTVSS
VL: QTVVTQEPSLTVSPGGTVTLTCRSSTGAVTTSNYANWVQQKPGQAPRGLIGGTNKRAPGTPARFSGSLLGGKAALTLSGVQPEDEAEYYCALWYSNLWVFGGGTKLTVL
B2: chimeric antibody 19-15 (full length, human IgG1) (antibody, V domains shown)
VH: EVKLLESGGGLVQPKGSLKLSCAASGFTFNTYAMNWVRQAPGKGLEWVARIRSKYNNYATYYAISVKDRFTISRDDSQSILYLQMNNLKTEDTAMYYCVRHGNFGNSYLSYWAYWGQGTLVTVSA
VL: QAVVTQESALTTSPGETVTLTCQSSTGAVTTNNYANWVQEKPDHLFTGLIGGTKQRAPGVPARFSGSLIGDKAALTITGAQTEDEAIYFCVLWYSNLWVFGGGTKLTVLG
B3: humanized anti-CD3 antibody 15H3L3 (human IgG1, light constant region SEQ ID NO: 23) (antibody)
heavy: not shown
light: QAVVTQEPSLTVSPGGTVTLTCQSSTGAVTTNNYANWVQQKPGHAFRGLIGGTKQRAPGVPARFSGSLLGGKAALTLSGVQPEDEAEYYCVLWYSNLWVFGGGTKLTVLGQPKAAPSVTLFPPSSEELQANKATLVCLISDFYPGAVTVAWKADSSPVKAGVETTTPSKQSNNKYAASSYLSLTPEQWKSHRSYSCQVTHEGSTVEKTVAPTECS
B4: chimeric antibody 19-26 (full length, human IgG1) (antibody, V domains shown)
VH: B2 VH with I64D, L109I, Y111W
VL: B2 VL with Q23K, N32S, K54N, Q55L, R56H, V91A
B5: humanized anti-CD3 antibody 15H3L2 (human IgG1) (antibody, V domains shown)
VH: B2 VH with K3Q, K15G, K19R, Q78K, S79N, I80T, N87S, K89R, T90A, A125S
VL: QTVVTQEPSLTVSPGGTVTLTCQSSTGAVTTNNYANWVQQKPGQAPRALIGGTKQRAPGTPARFSGSLLGGKAALTLSGVQPEDEAEYYCVLWYSNLWVFGGGTKLTVLG
B6: humanized anti-CD3 antibody 26H2L3 (human IgG1) (antibody, V domains shown)
VH: B1 VH with V5L, K19R, D76N, A81L, K89R, T90A, R100K, D106N, V109I, F112W
VL: QAVVTQEPSLTVSPGGTVTLTCKSSTGAVTTSNYANWVQQKPGHAFRGLIGGTNLHAPGVPARFSGSLLGGKAALTLSGVQPEDEAEYYCALWYSNLWVFGGGTKLTVLG

Key:
[1] = target: T1, human CD3ε-his (Cat #:10977-H08s, SinoBiological, China) (human, UniProt P07766 23-126); experiment: SPR (BIAcore 8K); human CD3ε-his coupled to CM5 chip, antibody injected
T1 construct: Bought protein; also called human CD3ε protein; recombinant human CD3ε; not shown: his tag
T1 sequence (P07766 23-126 limits assumed): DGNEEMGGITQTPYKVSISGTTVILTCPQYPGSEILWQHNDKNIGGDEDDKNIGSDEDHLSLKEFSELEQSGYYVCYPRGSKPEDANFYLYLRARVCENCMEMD

[2] = target: T2, monkey CD3ε-his (Cat #: 90047-C08H, SinoBiological, China) (monkey, UniProt Q95LI5 22-117); experiment: ELISA: plate coated with monkey CD3ε-his, antibody titrated, HRP goat anti-human IgG, OD450
T2 construct: Bought protein; also called monkey CD3ε protein; recombinant monkey CD3ε
T2 sequence: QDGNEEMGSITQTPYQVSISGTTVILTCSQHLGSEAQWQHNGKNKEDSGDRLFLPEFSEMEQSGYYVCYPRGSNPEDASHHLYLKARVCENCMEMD

[3] = target: T1, human CD3ε-his (Cat #:10977-H08s, …); experiment: ELISA: plate coated with human CD3ε-his, antibody titrated, HRP goat anti-human IgG, OD 450
[4] = target: T3, human TCR/CD3 complex on cell surfaces (primary human CD4+ T cells; Jurkat cells; human PBMCs) (human, UniProt P07766 23-207); experiment: FACS on primary human T cells, PE goat anti-human IgG, MFI
T3 construct: whole, on cells; Native complex on cells; the γ, δ, ζ and TCR chains of the complex are present on the cells too; also called human CD3 complexes on cell surfaces; human CD3+ T cells
T3 sequence (P07766 23-207, one chain of several): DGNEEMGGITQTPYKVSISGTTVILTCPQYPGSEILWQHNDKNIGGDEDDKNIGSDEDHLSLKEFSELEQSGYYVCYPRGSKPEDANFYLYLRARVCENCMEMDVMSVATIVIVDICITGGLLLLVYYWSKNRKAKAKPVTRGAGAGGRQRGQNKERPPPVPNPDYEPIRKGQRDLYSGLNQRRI

[5] = target: T2, monkey CD3ε-his (Cat #: 90047-C08H, …); experiment: ELISA: plate coated with monkey CD3ε-his, antibody titrated, HRP goat anti-human IgG, OD 450
[6] = target: T1, human CD3ε-his (Cat #:10977-H08s, …); experiment: ELISA: plate coated with human CD3ε-his, antibody titrated, HRP goat anti-human IgG, OD450
[7] = target: T3, human TCR/CD3 complex on cell surfaces …; experiment: FACS on primary human T cells, PE goat anti-human IgG, MFI; remark: listed apart in the source
[8] = target: T3, human TCR/CD3 complex on cell surfaces …; experiment: as above; remark: listed apart in the source
[9] = target: T2, monkey CD3ε-his (Cat #: 90047-C08H, …); experiment: ELISA: plate coated with monkey CD3ε-his, antibody titrated, HRP goat anti-human IgG, OD 450; remark: listed apart in the source
[10] = target: T1, human CD3ε-his (Cat #:10977-H08s, …); experiment: ELISA: plate coated with human CD3ε-his, antibody titrated, HRP goat anti-human IgG, OD 450; remark: listed apart in the source

EC50 (read off the curve) [2]	EC50 (read off the curve) [3]	EC50 (read off the curve) [4]	EC50 (read off the curve) [6]	EC50 (read off the curve) [7]	EC50 (read off the curve) [8]	EC50 (read off the curve) [9]	EC50 (read off the curve) [10]	further results	Binder
								Kd [1]: 0.154 nM	B1
~60 µg/mL	~0.05 µg/mL	~200 µg/mL	~60 µg/mL					EC50 (read off the curve) [5]: ~0.04 µg/mL; kon [1]: 229000 M⁻¹ s⁻¹	B2
~300 µg/mL			~300 µg/mL	~0.2 µg/mL					B3
	~0.05 µg/mL	~700 µg/mL			~0.2 µg/mL	~0.1 µg/mL	~0.1 µg/mL		B4
~100 µg/mL			~100 µg/mL	~0.2 µg/mL					B5
					~0.1 µg/mL	~0.1 µg/mL	~0.1 µg/mL		B6
